{
  "source": "patent US20250346646A1",
  "about": "“COMPOUNDS USEFUL TO TREAT METABOLIC DISORDERS” (President and Fellows of Harvard College, priority 2016, published 2025)",
  "key": {"Mouse aP2 [1]": {"target": "T1, Mouse aP2 (Mus musculus, UniProt P04117)", "T1 construct": "10 His-tag (N, cleaved yes); TEV protease site (N, cleaved yes); made in house; host or cells: E. coli BL21DE3", "T1 sequence (P04117 1-132)": "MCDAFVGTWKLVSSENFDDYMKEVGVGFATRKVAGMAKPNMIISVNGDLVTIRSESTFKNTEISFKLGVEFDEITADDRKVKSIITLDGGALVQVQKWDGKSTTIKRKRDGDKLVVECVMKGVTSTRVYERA", "experiment": "Biacore binding of CA33 to lipid-bound and lipid-free aP2", "procedure": "The affinity of anti-aP2 binding to aP2 (recombinantly generated in E. coli as described below) was determined by biomolecular interaction analysis, using a Biacore T200 system (GE Healthcare). Affinipure F(ab′)2 fragment goat anti-mouse IgG, Fc fragment specific (Jackson ImmunoResearch Lab, Inc.) in 10 mM NaAc, pH 5 buffer was immobilized on a CM5 Sensor Chip via amine coupling chemistry to a capture level between 4500-6000 response units (RU) using HBS-EP+(GE Healthcare) as the running buffer. Anti-aP2 IgG was diluted to between 1-10 μg/ml in running buffer. A 60 s injection of anti-aP2 IgG at 10 μl/min was used for capture by the immobilized anti-mouse IgG, Fc then aP2 was titrated from 25 nM to 3.13 nM over the captured anti-aP2 for 180 s at 30 μl/min followed by 300 s dissociation. The surface was regenerated by 2×60 s 40 mM HCl and 1×30 s 5 mM NaOH at 10 μl/min. The data were analyzed using Biacore T200 evaluation software (version 1.0) using the 1:1 binding model with local Rmax. For CA33, 60 s injection of the antibody at 10 μl/min was used for capture by the immobilized anti-mouse IgG, Fc then aP2 was titrated from 40 μM to 0.625 μM over the captured anti-aP2 for 180 s at 30 μl/min followed by 300 s dissociation. The surface was regenerated by 1×60 s 40 mM HCl, 1×30 s 5 mM NaOH and 1×60 s 40 mM HCl at 10 μl/min. Steady state fitting was used to determine affinity values. […]"}, "glucagon/aP2 complex": {"target": "glucagon/aP2 complex (Homo sapiens, UniProt P01275+P15090)", "sequence (P15090 whole entry)": "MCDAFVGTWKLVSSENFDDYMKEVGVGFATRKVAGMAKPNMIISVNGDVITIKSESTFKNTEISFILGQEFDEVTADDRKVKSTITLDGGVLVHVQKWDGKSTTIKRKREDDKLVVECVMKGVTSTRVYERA", "sequence (P01275 53-81 limits assumed)": "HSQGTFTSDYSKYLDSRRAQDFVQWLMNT", "experiment": "Blitz binding to tethered aP2 in glucagon plus mAb solution", "conditions": "biotinylated aP2 on streptavidin probes", "procedure": "Binding affinity studies were performed using a Blitz instrument (Pall Life Sciences, Menlo Park, CA). Biotinylated aP2 was attached to streptavidin probes."}, "Mouse aP2 [2]": {"target": "T1, Mouse aP2", "experiment": "Biacore antibody cross-blocking vs H3", "type": "binding", "procedure": "FIG. 10B is a table of antibody crossblocking of H3 vs. CA33, CA13, CA15, and CA23 as determined by Biacore analysis. ++=complete blocking; +=partial blocking; −=no crossblocking.\nThe assay was performed by injecting mouse aP2 in the presence or absence of mouse anti-aP2 IgG over captured rabbit anti-aP2 IgG. Biomolecular interaction analysis was performed using a Biacore T200 (GE Healthcare Bio-Sciences AB). Anti-aP2 rabbit IgG transient supernatants were captured on the immobilized anti-rabbit Fc surfaces (one supernatant per flowcell) using a flow rate of 10 μl/min and a 60 s injection to give response levels above 200RU. Then mouse aP2 at 100 nM, 0 nM or mouse aP2 at 100 nM plus mouse anti-aP2 IgG at 500 nM were passed over for 120 s followed by 120 s dissociation. The surfaces were regenerated with 2×60 s 40 mM HCl and 1×30 s 5 mM NaOH.\nIn further analysis, epitope identification based on hydrogen-deuterium exchange mass spectrometry experiments, for example, as described by Pandit et al. (2012) J. Mol. Recognit. […] Co-crystallization of the Fab fragments of CA33 and H3 with aP2 (FIG. 10D) was then conducted. […] Despite the partial blocking of H3 by CA33, we observed that there is in fact no direct overlap of their epitopes. Instead, the significant movement of the region around aP2 Phe58 may partially block binding of one antibody by the other in the competition experiments. […]"}, "aP2 knockout mice": {"tested_on": "aP2 knockout mice", "experiment": "Glucagon response of aP2 knockout mice given aP2, with or without CA33 preincubation", "type": "in vivo, mouse", "conditions": "CA33 preincubated with aP2", "from_the_text": "Mouse and rabbit-mouse hybrid monoclonal antibodies raised against the human and mouse aP2 peptides were produced and screened. […] The systemic improvement in glucose metabolism was further verified using a glucose tolerance test (GTT)."}},
  "data": [
    {"molecule": "CA33: low-affinity anti-aP2 monoclonal antibody, rabbit-mouse hybrid, produced and purified by UCB; VL Seq. ID 28, VH Seq. ID 41 (antibody, V domains shown, Rabbit Ab 909 VH region; Rabbit Ab 909 VL-region) VH: QSVEESGGRLVTPGTPLTLTCTVSGFSLSTYYMSWVRQAPGKGLEWIGIIYPSGSTYCASWAKGRFTISKASTTVDLKITSPTTEDTATYFCARPDNDGTSGYLSGFGLWGQGTLVTVSS VL: DVVMTQTPASVSEPVGGTVTIKCQASEDISRYLVWYQQKPGQPPKRLIYKASTLASGVPSRFKGSGSGTDFTLTISDLECDDAATYYCQCTYGTYAGSFFYSFGGGTEVVVE", "values": [
      {"measurement": "Kd", "setting": "Mouse aP2 [1]; De-lipidated mouse aP2, Biacore", "value": 4.7, "unit": "µM"},
      {"measurement": "Kd", "setting": "Mouse aP2 [1]; Lipid-loaded mouse aP2, Biacore", "value": 9.3, "unit": "µM"},
      {"measurement": "Binding to the glucagon/aP2 complex", "setting": "glucagon/aP2 complex", "value": "strong binding"},
      {"measurement": "Blocking of H3 binding to aP2", "setting": "Mouse aP2 [2]", "value": "partially blocked"},
      {"measurement": "Glucagon responsiveness of aP2 knockout mice", "setting": "aP2 knockout mice", "value": "prevents that"}
    ]}
  ]
}
